Results as given in patent US20260125477A1 (BEIJING MABWORKS BIOTECH, published 2026).

T1: human PD-L2/B7-DC protein, with His tag (human, UniProt Q9BQ51 20-219, limits assumed)
T1 construct: Bought protein
T1 sequence (looked up): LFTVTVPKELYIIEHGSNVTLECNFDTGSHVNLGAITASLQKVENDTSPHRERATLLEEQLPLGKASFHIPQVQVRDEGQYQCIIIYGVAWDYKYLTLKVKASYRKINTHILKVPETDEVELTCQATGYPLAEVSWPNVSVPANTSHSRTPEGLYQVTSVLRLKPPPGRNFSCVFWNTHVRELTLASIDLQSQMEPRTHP

T2: human B7-H2/ICOSLG protein, with His tag (human, UniProt O75144 19-258, limits assumed)
T2 construct: Bought protein
T2 sequence (looked up): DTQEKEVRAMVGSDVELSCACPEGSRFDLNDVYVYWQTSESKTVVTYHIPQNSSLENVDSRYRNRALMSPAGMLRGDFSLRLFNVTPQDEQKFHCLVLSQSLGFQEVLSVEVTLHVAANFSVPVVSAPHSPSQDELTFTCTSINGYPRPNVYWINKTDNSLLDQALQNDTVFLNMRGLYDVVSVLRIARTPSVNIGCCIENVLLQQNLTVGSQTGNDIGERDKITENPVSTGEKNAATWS

T3: human B7-H6/NCR3LG1 protein, with His tag (human, UniProt Q68D85 25-262, limits assumed)
T3 construct: Bought protein
T3 sequence (looked up): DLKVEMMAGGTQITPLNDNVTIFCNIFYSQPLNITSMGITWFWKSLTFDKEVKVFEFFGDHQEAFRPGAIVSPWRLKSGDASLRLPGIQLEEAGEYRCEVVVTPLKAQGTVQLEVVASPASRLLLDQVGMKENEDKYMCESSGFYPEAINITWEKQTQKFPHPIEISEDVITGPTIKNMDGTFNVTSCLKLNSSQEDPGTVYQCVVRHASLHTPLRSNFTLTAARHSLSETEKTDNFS

T4: human B7-H4 protein, with His tag (MALS verified) (human, UniProt Q7Z7D3 29-258, limits assumed)
T4 construct: Bought protein
T4 sequence (looked up): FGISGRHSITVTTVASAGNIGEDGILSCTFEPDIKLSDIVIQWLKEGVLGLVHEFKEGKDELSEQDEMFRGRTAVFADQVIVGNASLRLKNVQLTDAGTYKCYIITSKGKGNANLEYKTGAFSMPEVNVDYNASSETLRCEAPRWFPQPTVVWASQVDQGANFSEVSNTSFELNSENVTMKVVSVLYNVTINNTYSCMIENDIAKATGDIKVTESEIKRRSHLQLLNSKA

T5: recombinant human CD80 protein (human B7-1/CD80 protein, with His tag) (human, UniProt P33681 35-242)
T5 construct: Bought protein
T5 sequence (looked up): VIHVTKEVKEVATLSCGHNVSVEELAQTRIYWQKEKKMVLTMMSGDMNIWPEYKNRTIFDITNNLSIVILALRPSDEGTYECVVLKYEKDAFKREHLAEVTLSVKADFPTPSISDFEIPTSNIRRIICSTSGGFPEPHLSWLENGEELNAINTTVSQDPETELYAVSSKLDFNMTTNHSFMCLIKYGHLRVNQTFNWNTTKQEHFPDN

T6: human B7-H5/Gi24/VISTA protein, with His tag (MALS verified) (human, UniProt Q9H7M9 33-194)
T6 construct: Bought protein
T6 sequence (looked up): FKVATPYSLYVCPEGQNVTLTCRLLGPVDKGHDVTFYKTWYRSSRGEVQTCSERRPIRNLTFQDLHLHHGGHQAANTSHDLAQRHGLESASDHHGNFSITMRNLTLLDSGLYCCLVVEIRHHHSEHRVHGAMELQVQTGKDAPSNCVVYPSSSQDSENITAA

T7: human B7-H7/HHLA2 protein, with His tag (MALS verified) (human, UniProt Q9UM44 23-344, limits assumed)
T7 construct: Bought protein
T7 sequence (looked up): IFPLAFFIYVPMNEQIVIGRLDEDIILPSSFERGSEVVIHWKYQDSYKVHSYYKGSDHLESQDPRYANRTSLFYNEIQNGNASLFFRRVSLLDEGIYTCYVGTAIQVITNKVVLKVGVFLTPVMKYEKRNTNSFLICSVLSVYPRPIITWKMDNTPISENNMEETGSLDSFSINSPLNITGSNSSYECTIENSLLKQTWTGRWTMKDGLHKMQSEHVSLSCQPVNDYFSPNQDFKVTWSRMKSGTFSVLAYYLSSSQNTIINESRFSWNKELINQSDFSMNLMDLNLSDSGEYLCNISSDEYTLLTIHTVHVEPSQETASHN


Experiments:
[1] = target: T1, human PD-L2/B7-DC protein, with His tag; assay: SPR (Biacore T200), antibody captured on Protein A chip, response at 200 nM antigen
Description: (§1) The anti-human B7-H3 antibodies were tested for their binding capability to B7 family proteins by SPR using Biacore T200 biosensor (Biacore, US) provided with a pre-fixed Protein A sensor chip.
(§2) The dissociation was monitored for 600 sec. The data was analyzed using Biacore 8k evaluation software version 3.0, to obtain the binding responses, and the protein concentration-binding response curves were plotted, to determine the cross-reaction of the anti-human B7-H3 antibodies to the B7 family proteins.

[2] = target: T2, human B7-H2/ICOSLG protein, with His tag; assay: as above
Description: as §1, §2

[3] = target: T3, human B7-H6/NCR3LG1 protein, with His …; assay: as above
Description: as §1, §2

[4] = target: T4, human B7-H4 protein, with His tag (MALS …); assay: as above
Description: as §1, §2

[5] = target: T5, recombinant human CD80 protein (human …); assay: as above
Description: as §1, §2

[6] = target: T4, human B7-H4 protein, with His tag (MALS …); assay: SPR (Biacore T200), antibody captured on Protein A chip
Description: as §1, §2

[7] = target: T6, human B7-H5/Gi24/VISTA protein, with …; assay: as above
Description: as §1, §2

[8] = target: T8, human PD-L1/B7-H1 protein, with His tag (human, UniProt Q9NZQ7 19-238); assay: as above
T8 construct: Bought protein
Description: as §1, §2

[9] = target: T5, recombinant human CD80 protein (human …); assay: as above
Description: as §1, §2

[10] = target: T7, human B7-H7/HHLA2 protein, with His tag …; assay: as above
Description: as §1, §2

T8 sequence (Q9NZQ7 19-238 limits assumed): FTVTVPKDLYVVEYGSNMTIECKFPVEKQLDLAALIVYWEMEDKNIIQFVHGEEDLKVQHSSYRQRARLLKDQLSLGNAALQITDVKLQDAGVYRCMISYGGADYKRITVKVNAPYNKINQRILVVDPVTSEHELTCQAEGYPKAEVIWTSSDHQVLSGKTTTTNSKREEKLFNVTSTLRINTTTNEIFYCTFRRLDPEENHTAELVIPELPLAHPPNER

Binder | Response (RU) [1] [RU] | Response (RU) [2] [RU] | Response (RU) [3] [RU] | Response (RU) [4] [RU] | Response (RU) [5] [RU] | binding result [6] | binding result [7] | binding result [8] | binding result [9] | binding result [10]
10F5 (antibody, human IgG1, kappa, V domains shown, also called Ab10F5) VH: QVQLVQSGAEVKKPGSSVKVSCKASGGTFSSQAISWVRQAPGQGLEWMGRIIPMLGIGDYAQSFQGRVTITADKSTSTAYLEVSSLGSEDTAVYYCAREGIAALGTNYYYGMDVWGQGTAVTVSS VL: EIVMTQSPSSVSASVGDRVTITCRASQGISRWLAWYQQKPGKAPKLLIYVASSLQSGVPSRFSGSGSGTDFTLTISSLQPEDFATYYCQQANSFPFTFGPGTKVDIRR | 0 | 0.9 | -0.4 | 0.3 | 0.7 | no binding (tested: 200 nM) | no binding (tested: 200 nM) | no binding (tested: 200 nM) | no binding (tested: 200 nM) | no binding (tested: 200 nM)
Enoblituzumab (antibody, human IgG1, kappa, V domains shown, Humanized anti-B7-H3 antibody of MacroGenics with optimised Fc, used as the positive control; also called AbEno; enoblituzumab-IgG1-Mut) VH: EVQLVESGGGLVQPGGSLRLSCAASGFTFSSFGMHWVRQAPGKGLEWVAYISSDSSAIYYADTVKGRFTISRDNAKNSLYLQMNSLRDEDTAVYYCGRGRENIYYGSRLDYWGQGTTVTVSS VL: DIQLTQSPSFLSASVGDRVTITCKASQNVDTNVAWYQQKPGKAPKALIYSASYRYSGVPSRFSGSGSGTDFTLTISSLQPEDFATYYCQQYNNYPFTFGQGTKLEIKR | -1.2 | -2 | -2.2 | -2 | -1.8 |  |  |  |  | 
6B5 (antibody, human IgG1, kappa, V domains shown, also called 6B5-WT; Ab6B5) VH: QVQLVESGPGLVKPSQTLSLTCTVSDGSISSGGYYWSWIRQHPGKGLEWIGYIYYSGGTYYSPSLKSRVTISVDTSKNQFSLKLTSVTAADTAVYYCARRAGYSSSFDSWGQGILVTVSS VL: EIVLTQSPLSLPVTPGEPASISCRSSQSLLYSNGYTYLDWYLQKPGQSPQFLIYLGFNRASGVPDRFSGSGSGTDFTLKISRVEAEDVGVYYCMQGLQTPYTFGQGTKLEIKR | -0.2 | 0.9 | -0.2 | 0.5 | 0.6 |  |  |  |  | 
10D7 (antibody, human IgG1, kappa, V domains shown, also called 10D7-WT; Ab10D7) VH: QVQLVQSGPGLVKPSETLSLTCTVSGGSISRSSYYWGWIRQPPGKGLEWIGNIFYAGSTYYNPSLKSRVTISVDTSKNQFSLKLSSVTAADTAVYYCARRITGTTGWFDPWGQGTLVTVSS VL: DIQLTQSPSSLSASVGDRVTITCRASQGIRNDLGWYQQKPGKAPKLLIYAASTLQSGVPSRFSGSGSGTDFTLTISSLQPEDFATYYCLQDYNYPRTFGQGTKVEIKR | -0.2 | -0.1 | -0.5 | 0.3 | 0.2 | no binding (tested: 200 nM) | no binding (tested: 200 nM) | no binding (tested: 200 nM) | no binding (tested: 200 nM) | no binding (tested: 200 nM)
